From publication PMC9380774, “Mpe1 senses the binding of pre-mRNA and controls 3′ end processing by CPF” (Molecular Cell, 2022)

B2: Cft2(S), residues 1-720 (domain or fragment, S. cerevisiae, UniProt Q12102 1-720, looked up)
chain: MTYKYNCCDDGSGTTVGSVVRFDNVTLLIDPGWNPSKVSYEQCIKYWEKVIPEIDVIILSQPTIECLGAHSLLYYNFTSHFISRIQVYATLPVINLGRVSTIDSYASAGVIGPYDTNKLDLEDIEISFDHIVPLKYSQLVDLRSRYDGLTLLAYNAGVCPGGSIWCISTYSEKLVYAKRWNHTRDNILNAASILDATGKPLSTLMRPSAIITTLDRFGSSQPFKKRSKIFKDTLKKGLSSDGSVIIPVDMSGKFLDLFTQVHELLFESTKINAHTQVPVLILSYARGRTLTYAKSMLEWLSPSLLKTWENRNNTSPFEIGSRIKIIAPNELSKYPGSKICFVSEVGALINEVIIKVGNSEKTTLILTKPSFECASSLDKILEIVEQDERNWKTFPEDGKSFLCDNYISIDTIKEEPLSKEETEAFKVQLKEKKRDRNKKILLVKRESKKLANGNAIIDDTNGERAMRNQDILVENVNGVPPIDHIMGGDEDDDEEEENDNLLNLLKDNSEKSAAKKNTEVPVDIIIQPSAASKHKMFPFNPAKIKKDDYGTVVDFTMFLPDDSDNVNQNSRKRPLKDGAKTTSPVNEEDNKNEEEDGYNMSDPISKRSKHRASRYSGFSGTGEAENFDNLDYLKIDKTLSKRTISTVNVQLKCSVVILNLQSLVDQRSASIIWPSLKSRKIVLSAPKQIQNEEITAKLIKKNIEVVNMPLNKIVEFSTTI
notes: Cft2, S. cerevisiae, residues 1-720, lacks the disordered C-terminal region; also called Cft2(short); truncated version of Cft2; source: E. coli BL21 Star (DE3), purified (Ni-NTA, 3C cleavage, MonoQ, Superdex 200)

Columns and labels:
[1] = biological target: T1, S. cerevisiae polymerase module with an SII tag on Pfs2 (S. cerevisiae, UniProt Q06632 1-1357; P29468 1-568; P42841 1-465; P45976 1-327; Q06102 2-208); experiment: SEC; analytical, Superose 6 Increase 3.2/300, SEC 50 buffer (20 mM HEPES pH 8, 50 mM NaCl, 0.5 mM TCEP); 5 μM polymerase module or polymerase module-Cft2 complex, 15 μM Mpe1 or variant, 10 μM Cft2(S) or 720 μM yPIM peptide; with or without 10 μM precleaved CYC1 RNA; conditions: both partners purified
T1 construct: Cft1, S. cerevisiae; Pap1, S. cerevisiae; Pfs2, S. cerevisiae; Fip1, S. cerevisiae; Yth1, S. cerevisiae; That Construct B is the plasmid of this co-infection is surmised from the SII tag on Pfs2; also called Construct B (Cft1-Pap1-Pfs2-SII-Fip1-Yth1); source: Sf9, co-infected with a virus for untagged Cft2 and Ysh1; in lysate, and purified with Cft2 (Strep-Tactin, MonoQ); copies: + + + +

Cft1 = biological target: T2, Cft1 (S. cerevisiae, UniProt Q06632 1-1357); experiment: cryo-EM structure; sample of polymerase module, Mpe1, Cft2(S) and precleaved CYC1 RNA; only the polymerase module and the yPIM of Cft2 are seen in the map; conditions: both partners purified
T2 construct: Cft1, S. cerevisiae, subunit of the polymerase module of CPF; E. coli codon-optimized gene (GeneArt); source: Sf9, baculovirus, co-expressed with Mpe1-SII, in lysate; also as subunit of the purified polymerase module (Sf9)
T2 sequence: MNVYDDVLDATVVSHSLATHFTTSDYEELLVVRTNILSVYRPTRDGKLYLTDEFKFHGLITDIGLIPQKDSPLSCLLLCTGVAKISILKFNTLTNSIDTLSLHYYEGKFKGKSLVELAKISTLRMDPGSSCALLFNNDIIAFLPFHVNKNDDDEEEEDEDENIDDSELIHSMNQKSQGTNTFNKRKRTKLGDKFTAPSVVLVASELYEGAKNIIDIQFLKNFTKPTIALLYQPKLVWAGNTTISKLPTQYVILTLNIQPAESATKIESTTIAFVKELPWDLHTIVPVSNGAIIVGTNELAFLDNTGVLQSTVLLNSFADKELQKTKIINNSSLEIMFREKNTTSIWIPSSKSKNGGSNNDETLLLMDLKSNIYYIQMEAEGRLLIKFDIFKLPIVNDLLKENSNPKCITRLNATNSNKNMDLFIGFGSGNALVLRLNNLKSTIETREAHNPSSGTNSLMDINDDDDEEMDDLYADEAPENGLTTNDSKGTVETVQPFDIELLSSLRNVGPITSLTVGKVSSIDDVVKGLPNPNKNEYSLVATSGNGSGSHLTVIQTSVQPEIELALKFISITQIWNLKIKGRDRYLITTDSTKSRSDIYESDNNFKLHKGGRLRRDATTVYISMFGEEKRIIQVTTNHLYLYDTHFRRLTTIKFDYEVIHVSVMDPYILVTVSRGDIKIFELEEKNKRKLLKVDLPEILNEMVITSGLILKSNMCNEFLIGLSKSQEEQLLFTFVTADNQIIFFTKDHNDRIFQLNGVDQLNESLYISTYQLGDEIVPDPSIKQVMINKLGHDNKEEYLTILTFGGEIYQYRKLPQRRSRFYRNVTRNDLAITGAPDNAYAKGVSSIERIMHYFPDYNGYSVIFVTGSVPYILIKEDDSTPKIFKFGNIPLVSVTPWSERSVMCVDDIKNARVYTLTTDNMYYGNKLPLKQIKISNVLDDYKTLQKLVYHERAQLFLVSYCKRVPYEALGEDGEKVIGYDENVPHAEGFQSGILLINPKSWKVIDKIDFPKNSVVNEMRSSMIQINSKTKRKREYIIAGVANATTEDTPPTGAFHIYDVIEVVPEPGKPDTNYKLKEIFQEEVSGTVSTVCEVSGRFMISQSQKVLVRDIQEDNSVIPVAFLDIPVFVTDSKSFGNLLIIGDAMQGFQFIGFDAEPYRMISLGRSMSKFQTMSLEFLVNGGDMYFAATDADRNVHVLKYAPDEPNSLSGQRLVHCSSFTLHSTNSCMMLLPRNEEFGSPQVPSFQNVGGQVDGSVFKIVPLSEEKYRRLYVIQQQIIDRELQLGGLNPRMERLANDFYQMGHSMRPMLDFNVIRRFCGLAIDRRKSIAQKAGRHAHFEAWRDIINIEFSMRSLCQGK

Cft2(S), residues 1-720 [2] = biological target: B2; experiment: cross-linking; polymerase module-Cft2(S)-Mpe1-RNA complex (0.5 mg/ml) with 2 mM sulfo-SDA for 2 h on ice, UV 365 nm for 15 min; 20 mM HEPES, 50 mM NaCl, 0.5 mM TCEP, pH 8.0; mass spectrometry, 1 % FDR on link level; conditions: both partners purified
Cft2(S), residues 1-720 [3] = biological target: B2; experiment: cryo-EM structure; sample of polymerase module, Mpe1, Cft2(S) and precleaved CYC1 RNA; only the polymerase module and the yPIM of Cft2 are seen in the map; conditions: both partners purified
[4] = biological target: T1, S. cerevisiae polymerase module with an …; experiment: pull-down; Sf9 cells co-infected with viruses for the polymerase module (SII on Pfs2) and for untagged Cft2 and Ysh1; Strep-Tactin in Buffer A, then MonoQ; conditions: partners not purified

T1 sequence (P29468 whole entry, chain 2 of 2): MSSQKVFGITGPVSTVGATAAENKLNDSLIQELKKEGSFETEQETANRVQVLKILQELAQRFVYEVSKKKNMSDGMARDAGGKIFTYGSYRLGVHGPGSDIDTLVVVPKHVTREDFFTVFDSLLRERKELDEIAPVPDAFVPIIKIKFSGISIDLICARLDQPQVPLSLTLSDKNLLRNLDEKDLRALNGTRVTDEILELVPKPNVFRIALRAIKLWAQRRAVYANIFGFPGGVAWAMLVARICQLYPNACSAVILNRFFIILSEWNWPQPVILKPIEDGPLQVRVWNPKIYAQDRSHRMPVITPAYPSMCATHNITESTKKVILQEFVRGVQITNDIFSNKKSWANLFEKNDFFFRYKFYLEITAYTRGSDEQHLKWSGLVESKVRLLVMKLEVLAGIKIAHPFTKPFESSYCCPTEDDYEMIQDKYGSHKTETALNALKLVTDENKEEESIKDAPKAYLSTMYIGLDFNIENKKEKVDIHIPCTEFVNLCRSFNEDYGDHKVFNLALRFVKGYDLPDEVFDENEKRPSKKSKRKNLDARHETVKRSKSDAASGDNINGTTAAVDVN
T1 sequence (P45976 whole entry, chain 4 of 2): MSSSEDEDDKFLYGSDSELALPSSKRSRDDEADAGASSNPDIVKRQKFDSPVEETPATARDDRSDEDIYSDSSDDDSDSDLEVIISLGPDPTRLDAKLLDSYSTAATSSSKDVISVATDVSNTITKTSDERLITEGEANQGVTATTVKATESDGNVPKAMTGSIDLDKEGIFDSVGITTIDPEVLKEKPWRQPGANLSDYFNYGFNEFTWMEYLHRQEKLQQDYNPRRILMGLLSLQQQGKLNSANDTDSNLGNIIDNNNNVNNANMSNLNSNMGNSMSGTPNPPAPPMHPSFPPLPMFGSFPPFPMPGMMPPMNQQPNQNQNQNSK

B1: StrepII-tagged Mpe1 (Mpe1-SII) (natural protein, S. cerevisiae)
chain: MSSTIFYRFKSQRNTSRILFDGTGLTVFDLKREIIQENKLGDGTDFQLKIYNPDTEEEYDDDAFVIPRSTSVIVKRSPAIKSFSVHSRLKGNVGAAALGNATRYVTGRPRVLQKRQHTATTTANVSGTTEEERIASMFATQENQWEQTQEEMSAATPVFFKSQTNKNSAQENEGPPPPGYMCYRCGGRDHWIKNCPTNSDPNFEGKRIRRTTGIPKKFLKSIEIDPETMTPEEMAQRKIMITDEGKFVVQVEDKQSWEDYQRKRENRQIDGDETIWRKGHFKDLPDDLKCPLTGGLLRQPVKTSKCCNIDFSKEALENALVESDFVCPNCETRDILLDSLVPDQDKEKEVETFLKKQEELHGSSKDGNQPETKKMKLMDPTGTAGLNNNTSLPTSVNNGGTPVPPVPLPFGIPPFPMFPMPFMPPTATITNPHQADASPKK
notes: Mpe1, S. cerevisiae, subunit of the nuclease module of CPF; no cleavage is told; also called WT Mpe1; Mpe1-3C-SII; source: Sf9, baculovirus; in lysate, and purified (Strep-Tactin, MonoQ)
Question: Does B1 bind [1]?
Answer: binds

Question: Does B2 bind (Cft1)?
Answer: binds

B3: Yth1 (natural protein, S. cerevisiae)
chain: MSLIHPDTAKYPFKFEPFLRQEYSFSLDPDRPICEFYNSREGPKSCPRGPLCPKKHVLPIFQNKIVCRHWLRGLCKKNDQCEYLHEYNLRKMPECVFFSKNGYCTQSPDCQYLHIDPASKIPKCENYEMGFCPLGSSCPRRHIKKVFCQRYMTGFCPLGKDECDMEHPQFIIPDEGSKLRIKRDDEINTRKMDEEKERRLNAIINGEV
notes: Yth1, S. cerevisiae, subunit of the polymerase module of CPF; E. coli codon-optimized gene (GeneArt); source: Sf9, baculovirus, co-expressed with Mpe1-SII, in lysate; also as subunit of the purified polymerase module (Sf9)
Question: Does B3 bind (Cft2(S), residues 1-720 [2])?
Answer: binds

B4: Pfs2 (natural protein, S. cerevisiae)
chain: MDGHNQNQYQNQNQIQQSQQPPLKKYVTQRRSVDVSSPYINLYYNRRHGLPNLVVEPETSYTIDIMPPNAYRGRDRVINLPSKFTHLSSNKVKHVIPAIQWTPEGRRLVVATYSGEFSLWNASSFTFETLMQAHDSAVTTMKYSHDSDWMISGDADGMIKIWQPNFSMVKEIDAAHTESIRDMAFSSNDSKFVTCSDDNILKIWNFSNGKQERVLSGHHWDVKSCDWHPEMGLIASASKDNLVKLWDPRSGNCISSILKFKHTVLKTRFQPTKGNLLMAISKDKSCRVFDIRYSMKELMCVRDETDYMTLEWHPINESMFTLACYDGSLKHFDLLQNLNEPILTIPYAHDKCITSLSYNPVGHIFATAAKDRTIRFWTRARPIDPNAYDDPTYNNKKINGWFFGINNDINAVREKSEFGAAPPPPATLEPHALPNMNGFINKKPRQEIPGIDSNIKSSTLPGLSI
notes: Pfs2, S. cerevisiae, subunit of the polymerase module of CPF; E. coli codon-optimized gene (GeneArt); source: Sf9, baculovirus, co-expressed with Mpe1-SII, in lysate; also as subunit of the purified polymerase module (Sf9)
Question: Does B4 bind (Cft2(S), residues 1-720 [3])?
Answer: binds

B5: Cft2 (untagged, co-expressed with the polymerase module) (natural protein, S. cerevisiae, UniProt Q12102 1-859, looked up)
chain: MTYKYNCCDDGSGTTVGSVVRFDNVTLLIDPGWNPSKVSYEQCIKYWEKVIPEIDVIILSQPTIECLGAHSLLYYNFTSHFISRIQVYATLPVINLGRVSTIDSYASAGVIGPYDTNKLDLEDIEISFDHIVPLKYSQLVDLRSRYDGLTLLAYNAGVCPGGSIWCISTYSEKLVYAKRWNHTRDNILNAASILDATGKPLSTLMRPSAIITTLDRFGSSQPFKKRSKIFKDTLKKGLSSDGSVIIPVDMSGKFLDLFTQVHELLFESTKINAHTQVPVLILSYARGRTLTYAKSMLEWLSPSLLKTWENRNNTSPFEIGSRIKIIAPNELSKYPGSKICFVSEVGALINEVIIKVGNSEKTTLILTKPSFECASSLDKILEIVEQDERNWKTFPEDGKSFLCDNYISIDTIKEEPLSKEETEAFKVQLKEKKRDRNKKILLVKRESKKLANGNAIIDDTNGERAMRNQDILVENVNGVPPIDHIMGGDEDDDEEEENDNLLNLLKDNSEKSAAKKNTEVPVDIIIQPSAASKHKMFPFNPAKIKKDDYGTVVDFTMFLPDDSDNVNQNSRKRPLKDGAKTTSPVNEEDNKNEEEDGYNMSDPISKRSKHRASRYSGFSGTGEAENFDNLDYLKIDKTLSKRTISTVNVQLKCSVVILNLQSLVDQRSASIIWPSLKSRKIVLSAPKQIQNEEITAKLIKKNIEVVNMPLNKIVEFSTTIKTLDISIDSNLDNLLKWQRISDSYTVATVVGRLVKESLPQVNNHQKTASRSKLVLKPLHGSSRSHKTGALSIGDVRLAQLKKLLTEKNYIAEFKGEGTLVINEKVAVRKINDAETIIDGTPSELFDTVKKLVTDMLAKI
notes: Cft2, S. cerevisiae, pseudo-nuclease subunit of the nuclease module of CPF; source: Sf9, co-infected with viruses for the polymerase module (Pfs2-SII) and Ysh1-Cft2; in lysate, and co-purified with the polymerase module (Strep-Tactin, MonoQ)
Question: Does B5 bind [4]?
Answer: binds
